The supplement of paper PMC9233669
Variants at the floor of the assay were thinned out.

Legend:
[1] = system: biotinyl-Phe-oxazolone; assay: self-aminoacylation, catalytic enhancement (BFO) (fold over background); higher = more active; k-Seq, kA / k0A0; sequences stand for … in GGGAAUGGAUCCACAUCUACGAAUUC…UUCACUGCAGACUUGACGAAGCUG
Method in brief: (§1)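 Mutagenized RNA pools with a 21-nt variable region (0.43 μM) reacted with each biotinyl-aminoacyl-oxazolone at 2–1250 μM. Reactions ran in 50 μL HEPES/NaCl/KCl/MgCl2/CaCl2 buffer with 5% acetonitrile, pH 6.9–7.0, for 90 minutes at room temperature. Streptavidin-captured RNA was quantified by triplicate qPCR and Illumina sequencing, and per-sequence fraction reacted was fit to a pseudo-first-order model with 1000 bootstraps. Catalytic enhancement is median kA divided by the uncatalyzed rate, the low-activity peak of a bimodal Gaussian fit.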

[2] = system: biotinyl-Ile-oxazolone; assay: self-aminoacylation, catalytic enhancement (BIO) (fold over background); higher = more active; k-Seq, kA / k0A0; sequences stand for … in GGGAAUGGAUCCACAUCUACGAAUUC…UUCACUGCAGACUUGACGAAGCUG
Method in brief: as §1

[3] = system: biotinyl-Met-oxazolone; assay: self-aminoacylation, catalytic enhancement (BMO) (fold over background); higher = more active; k-Seq, kA / k0A0; sequences stand for … in GGGAAUGGAUCCACAUCUACGAAUUC…UUCACUGCAGACUUGACGAAGCUG
Method in brief: as §1

[4] = system: biotinyl-Val-oxazolone; assay: self-aminoacylation, catalytic enhancement (BVO) (fold over background); higher = more active; k-Seq, kA / k0A0; sequences stand for … in GGGAAUGGAUCCACAUCUACGAAUUC…UUCACUGCAGACUUGACGAAGCUG
Method in brief: as §1

[5] = system: biotinyl-Leu-oxazolone; assay: self-aminoacylation, catalytic enhancement (BLO) (fold over background); higher = more active; k-Seq, kA / k0A0; sequences stand for … in GGGAAUGGAUCCACAUCUACGAAUUC…UUCACUGCAGACUUGACGAAGCUG
Method in brief: as §1

[6] = system: biotinyl-Trp-oxazolone; assay: self-aminoacylation, catalytic enhancement (BWO) (fold over background); higher = more active; k-Seq, kA / k0A0; sequences stand for … in GGGAAUGGAUCCACAUCUACGAAUUC…UUCACUGCAGACUUGACGAAGCUG
Method in brief: as §1

Row | Sequence | self-aminoacylation [1] | self-aminoacylation [2] | self-aminoacylation [3] | self-aminoacylation [4] | self-aminoacylation [5] | self-aminoacylation [6]
1 | CCACACUUCAAGCAAUUGAUC [Fam1B.1 aminoacylation ribozyme variant] | 0.853 | 0.573 | 0.368 | 0.538 | 0.536 | 0.518
2 | CCACACUUCAAGCACUCGAUC [Fam1B.1 aminoacylation ribozyme variant] | 0.872 | 0.604 | 0.43 | 0.713 | 0.546 | 0.436
3 | CCACACUUCAAGCACUCGGGC [Fam1B.1 aminoacylation ribozyme variant] | 13.2 | 2.58 | 3.49 | 3.61 | 2.62 | 3.37
4 | CCACACUUCAAGCACUCGGUC [Fam1B.1 aminoacylation ribozyme variant] | 0.887 | 0.855 | 0.777 | 0.996 | 0.757 | 0.733
5 | CCACACUUCAAGCACUGGGUC [Fam1B.1 aminoacylation ribozyme variant] | 0.974 | 0.807 | 0.66 | 1.1 | 0.971 | 1.03
6 | CCACACUUCAAGCAUGCGGUC [Fam1B.1 aminoacylation ribozyme variant] | 0.814 | 1.41 | 1.57 | 2.27 | 1.62 | 2.22
7 | CCACACUUCAAGCAUUCGAUC [Fam1B.1 aminoacylation ribozyme variant] | 1.11 | 0.664 | 0.629 | 0.856 | 0.577 | 0.748
8 | CCACACUUCAAGCAUUCGCUC [Fam1B.1 aminoacylation ribozyme variant] | 2.04 | 2.27 | 2.42 | 2.88 | 2.41 | 2.64
9 | CCACACUUCAAGCAUUCGGAC [Fam1B.1 aminoacylation ribozyme variant] | 0.829 | 1.35 | 0.977 | 1.29 | 0.681 | 0.71
10 | CCACACUUCAAGCAUUCGGUG [Fam1B.1 aminoacylation ribozyme variant] | 68.5 | 5.54 | 8.89 | 5.97 | 11 | 7.88
11 | CCACACUUCAAGCCAUCGGUC [Fam1B.1 aminoacylation ribozyme variant] | 0.854 | 0.995 | 0.95 | 1.24 | 0.986 | 0.932
12 | CCACACUUCAAGCCAUCGGUG [Fam1B.1 aminoacylation ribozyme variant] | 31.3 | 3.57 | 4.72 | 4.15 | 6.79 | 4.89
13 | CCACACUUCAAGCCAUUGGUC [Fam1B.1 aminoacylation ribozyme variant] | 0.631 | 0.787 | 0.874 | 1.09 | 0.848 | 0.734
14 | CCACACUUCAAGCGAUCAGUC [Fam1B.1 aminoacylation ribozyme variant] | 1.37 | 0.884 | 0.699 | 0.776 | 0.665 | 0.843
15 | CCACACUUCAAGCGAUCGGAC [Fam1B.1 aminoacylation ribozyme variant] | 0.588 | 1.22 | 1.33 | 1.27 | 1.26 | 1.36
16 | CCACACUUCAAGCGAUCGGUC [Fam1B.1 aminoacylation ribozyme variant] | 1.72 | 0.887 | 0.743 | 1.02 | 0.815 | 1.51
17 | CCACACUUCAAGCUAUCGGUG [Fam1B.1 aminoacylation ribozyme variant] | 33 | 3.88 | 5.19 | 3.77 | 6.48 | 5.5
18 | CCACACUUCAAGCUAUUGGUC [Fam1B.1 aminoacylation ribozyme variant] | 0.896 | 0.797 | 0.643 | 0.759 | 0.595 | 0.661
19 | CCACACUUCAAGCUCUCGGUC [Fam1B.1 aminoacylation ribozyme variant] | 0.716 | 1.21 | 1.14 | 1.42 | 1.25 | 1.1
20 | CCACACUUCAAGGAAUCGGCC [Fam1B.1 aminoacylation ribozyme variant] | 1.42 | 1.89 | 2.08 | 2.4 | 2.39 | 4.4
21 | CCACACUUCAAGGAAUCGGUA [Fam1B.1 aminoacylation ribozyme variant] | 0.499 | 1.26 | 1 | 1.18 | 1.23 | 0.902
22 | CCACACUUCAAGGUAUCGGUC [Fam1B.1 aminoacylation ribozyme variant] | 0.829 | 0.941 | 0.95 | 0.995 | 0.907 | 1.28
23 | CCACACUUCAAGUCAUCGGUC [Fam1B.1 aminoacylation ribozyme variant] | 0.991 | 1.05 | 1.04 | 1.32 | 1.31 | 0.698
24 | CCACACUUCAAUCAAUAGGUC [Fam1B.1 aminoacylation ribozyme variant] | 1.11 | 0.573 | 0.569 | 0.646 | 0.517 | 0.511
25 | CCACACUUCAAUCAAUCGGUA [Fam1B.1 aminoacylation ribozyme variant] | 0.825 | 0.79 | 0.749 | 0.849 | 0.609 | 0.739
26 | CCACACUUCAAUCAAUCGGUU [Fam1B.1 aminoacylation ribozyme variant] | 7.61 | 1.47 | 1.16 | 1.21 | 1.34 | 5.87

Row | Sequence | self-aminoacylation [1] | self-aminoacylation [2] | self-aminoacylation [3] | self-aminoacylation [4] | self-aminoacylation [5] | self-aminoacylation [6]
27 | CCACACUUCACGCAAACGGUC [Fam1B.1 aminoacylation ribozyme variant] | 0.827 | 0.736 | 0.793 | 0.995 | 0.861 | 0.98
28 | CCACACUUCACGCAACCGGUC [Fam1B.1 aminoacylation ribozyme variant] | 0.978 | 1.24 | 1.21 | 1.55 | 1.55 | 0.831
29 | CCACACUUCACGCAAUCGGUU [Fam1B.1 aminoacylation ribozyme variant] | 0.906 | 1.76 | 2.01 | 1.92 | 1.95 | 1.45
30 | CCACACUUCAGGCAAUCGAUC [Fam1B.1 aminoacylation ribozyme variant] | 0.731 | 0.813 | 0.634 | 0.892 | 0.591 | 0.804
31 | CCACACUUCAUGCAAUCGCUC [Fam1B.1 aminoacylation ribozyme variant] | 0.603 | 0.99 | 1.36 | 1.06 | 1.1 | 0.588
32 | CCACACUUCAUGCAAUCGGGC [Fam1B.1 aminoacylation ribozyme variant] | 0.961 | 1.86 | 1.25 | 1.84 | 1.38 | 1.77
33 | CCACACUUCAUGCAAUCGUUC [Fam1B.1 aminoacylation ribozyme variant] | 0.835 | 0.737 | 0.566 | 0.699 | 0.513 | 0.373
34 | CCACACUUCAUGCAAUGGGUC [Fam1B.1 aminoacylation ribozyme variant] | 0.544 | 0.751 | 0.738 | 0.712 | 0.704 | 0.569
35 | CCACACUUCCAGAAAUCGGUC [Fam1B.1 aminoacylation ribozyme variant] | 1.69 | 0.933 | 0.808 | 1.06 | 1.13 | 0.976
36 | CCACACUUCCAGCAAUCGGCC [Fam1B.1 aminoacylation ribozyme variant] | 3.34 | 3.06 | 2.08 | 4.01 | 2.42 | 4.06
37 | CCACACUUCGAGCAAACGGUC [Fam1B.1 aminoacylation ribozyme variant] | 0.648 | 0.678 | 0.663 | 0.655 | 0.632 | 0.57
38 | CCACACUUCGAGCAAGCGGUC [Fam1B.1 aminoacylation ribozyme variant] | 0.487 | 0.864 | 0.927 | 1.19 | 0.874 | 0.82
39 | CCACACUUCGAGCAAUCAGUC [Fam1B.1 aminoacylation ribozyme variant] | 0.892 | 0.666 | 0.488 | 0.625 | 0.52 | 0.695
40 | CCACACUUCGAGCAAUCGGCC [Fam1B.1 aminoacylation ribozyme variant] | 7.13 | 1.64 | 1.61 | 2.77 | 1.94 | 2.11
41 | CCACACUUCGAGCAUUCGGUC [Fam1B.1 aminoacylation ribozyme variant] | 1.18 | 1.97 | 1.67 | 2.2 | 1.72 | 1.54
42 | CCACACUUCGAGCGAUCGGUC [Fam1B.1 aminoacylation ribozyme variant] | 2.95 | 1.43 | 1.64 | 1.69 | 1.86 | 1.38
43 | CCACACUUCUAGCAACCGGUC [Fam1B.1 aminoacylation ribozyme variant] | 0.818 | 0.817 | 0.681 | 0.946 | 0.868 | 0.402
44 | CCACACUUCUAGCAAUCAGUC [Fam1B.1 aminoacylation ribozyme variant] | 1.14 | 0.797 | 0.648 | 0.721 | 0.622 | 0.459
45 | CCACACUUCUAGCAAUCUGUC [Fam1B.1 aminoacylation ribozyme variant] | 0.693 | 0.424 | 0.378 | 0.502 | 0.354 | 0.292
46 | CCACACUUGACGCAAUCGGUC [Fam1B.1 aminoacylation ribozyme variant] | 1.18 | 1.4 | 1.44 | 1.43 | 1.21 | 1.54
47 | CCACACUUUAAGCAAUCAGUC [Fam1B.1 aminoacylation ribozyme variant] | 1.03 | 0.76 | 0.541 | 0.874 | 0.69 | 0.749
48 | CCACACUUUAAGCAAUCGUUC [Fam1B.1 aminoacylation ribozyme variant] | 0.911 | 0.669 | 0.566 | 0.849 | 0.543 | 0.575
49 | CCACACUUUAAGGAAUCGGUC [Fam1B.1 aminoacylation ribozyme variant] | 0.557 | 0.862 | 0.717 | 0.826 | 0.725 | 0.644
50 | CCACACUUUAAGUAAUCGGUC [Fam1B.1 aminoacylation ribozyme variant] | 0.978 | 0.653 | 0.632 | 0.694 | 0.667 | 0.677
51 | CCACAGUUCAACCAAUCGGUC [Fam1B.1 aminoacylation ribozyme variant] | 6.48 | 1.28 | 1.23 | 1.26 | 1.51 | 5.76
